Positions count from the first letter of the chain named. Names and notes keep the numbering of the source.

Data on three molecules can be found in publication PMC6203859, “Non-catalytic signaling by pseudokinase ILK for regulating cell adhesion” (Nature Communications, 2018).

Assay [1] concerns the target full-length human ILK (C346S; C422S), subunit of the coexpressed IPP complex (human, UniProt Q13418 1-452, C346S | C422S). The assay is described as follows: SEC; purified IPP complex (coexpressed in E. coli, co-purified by Ni affinity on His6-PINCH-1) on Superose 6 10/300 GL. To be noted: both partners purified.
Assay [2] deals with F-actin (rabbit skeletal muscle actin, polymerised) (rabbit, UniProt P68135 1-377). The experiment in a line: co-sedimentation; F-actin co-sedimentation: rabbit skeletal muscle actin polymerized with 50 mM KCl, 2 mM MgCl2, 1 mM ATP; test protein added in F-actin buffer (with 5% glycerol or no glycerol), 30 min room temperature; 150,000xg, 4 °C, 1 h; SDS-PAGE, Coomassie, densitometry; KD by curve fitting. The note with it: both partners purified.

Sequence of full-length human ILK (C346S; C422S), subunit of the coexpressed IPP complex (Q13418 whole entry C346S/C422S, one chain of several): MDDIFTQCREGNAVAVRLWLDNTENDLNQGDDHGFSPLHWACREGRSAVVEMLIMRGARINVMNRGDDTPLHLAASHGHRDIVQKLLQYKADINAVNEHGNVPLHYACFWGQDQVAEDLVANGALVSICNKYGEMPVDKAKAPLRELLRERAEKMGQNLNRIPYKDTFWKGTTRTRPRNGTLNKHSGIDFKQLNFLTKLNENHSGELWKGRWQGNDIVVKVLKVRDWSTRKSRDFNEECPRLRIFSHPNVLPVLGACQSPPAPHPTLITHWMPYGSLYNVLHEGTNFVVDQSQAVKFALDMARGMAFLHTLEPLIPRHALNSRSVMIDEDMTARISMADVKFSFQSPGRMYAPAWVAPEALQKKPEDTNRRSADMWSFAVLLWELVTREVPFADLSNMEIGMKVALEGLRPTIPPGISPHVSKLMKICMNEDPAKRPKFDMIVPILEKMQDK

B1: full-length human α-Parvin, subunit of the coexpressed IPP complex (natural protein, UniProt Q9NVD7 1-372, looked up)
chain: MATSPQKSPSVPKSPTPKSPPSRKKDDSFLGKLGGTLARRKKAKEVSELQEEGMNAINLPLSPIPFELDPEDTMLEENEVRTMVDPNSRSDPKLQELMKVLIDWINDVLVGERIIVKDLAEDLYDGQVLQKLFEKLESEKLNVAEVTQSEIAQKQKLQTVLEKINETLKLPPRSIKWNVDSVHAKSLVAILHLLVALSQYFRAPIRLPDHVSIQVVVVQKREGILQSRQIQEEITGNTEALSGRHERDAFDTLFDHAPDKLNVVKKTLITFVNKHLNKLNLEVTELETQFADGVYLVLLMGLLEGYFVPLHSFFLTPDSFEQKVLNVSFAFELMQDGGLEKPKPRPEDIVNCDLKSTLRVLYNLFTKYRNVE
On to B1, for which the binding result in assay [1] is reported as “binds”.

B2: α-Parvin-N (N-terminal region 1–91) as used in F-actin co-sedimentation (domain or fragment)
chain: MATSPQKSPSVPKSPTPKSPPSRKKDDSFLGKLGGTLARRKKAKEVSELQEEGMNAINLPLSPIPFELDPEDTMLEENEVRTMVDPNSRSD
notes: α-Parvin, human, N-terminal region; the text defines α-Parvin-N as 1-91; the methods list a GST-fused 1-89 and a hexahistidine-tagged 1-91 form; also called WT α-Parvin; source: E. coli, purified
As usually defined, the Kd is the concentration at which binding is half-saturated. A high value points to lower affinity. The molecule B2 yielded a Kd in assay [2] of around 21 µM.

B3: α-Parvin-N 5A (L37A/R39A/R40A/K41A/K42A) as used in F-actin co-sedimentation (domain or fragment)
chain: B2 chain with L37A, R39A, R40A, K41A, K42A
notes: α-Parvin, human, N-terminal domain, residues 1-91 (both the GST-fused and the His6-tagged 5A forms are 1-91); source: E. coli, purified
For the molecule B3, the dissociation constant (Kd) in assay [2] was around 49 µM.
